Data: paper PMC7840946 (Nature Communications, 2021)

Molecular target: PstS1 (Rv0934), recombinant, wild type (Mycobacterium tuberculosis H37Rv, UniProt P9WGU1)
Test: SPR
Details: both partners purified

PstS1 (Rv0934), recombinant, wild type, sequence (P9WGU1 25-374): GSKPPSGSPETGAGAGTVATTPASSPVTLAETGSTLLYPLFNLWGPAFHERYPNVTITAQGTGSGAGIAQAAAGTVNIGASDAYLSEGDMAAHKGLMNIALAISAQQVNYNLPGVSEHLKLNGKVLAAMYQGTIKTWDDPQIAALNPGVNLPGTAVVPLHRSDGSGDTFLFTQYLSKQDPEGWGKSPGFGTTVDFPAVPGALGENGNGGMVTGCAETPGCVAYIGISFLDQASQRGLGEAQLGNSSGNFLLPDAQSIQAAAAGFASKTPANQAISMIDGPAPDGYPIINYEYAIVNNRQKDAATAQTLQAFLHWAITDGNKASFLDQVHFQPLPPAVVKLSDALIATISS

B1: p4-36gl, predicted germline version of mAb p4-36 (antibody, V domains shown)
VH: EVQLVESGGGLVQPGRSLRLSCTASGFTFGDYAMSWVRQAPGKGLEWVGFIRSKAYGGTTEYAASVKGRFTISRDDSKSIAYLQMNSLKTEDTAVYYCTGPRPYYDSSGYYPYYFDYWGQGTLVTVSS
VL: QSALTQPRSVSGSPGQSVTISCTGTSSDVGGYNYVSWYQQHPGKAPKLMIYDVSKRPSGVPDRFSGSKSGNTASLTISGLQAEDEADYYCCSYAGSYTYVVFGGGTKLTVL
notes: also called germline (gl) version of p4-36
fold reduction in affinity against the mature p4-36: 4.7 fold
